Values belong to the compound of their own block, whether it stands above or below them.
How the values were obtained:
Ps_cOTC [1] = target: T1, Ps_cOTC (Psychrobacter sp. PAMC 21119, UniProt Z9QBN3KKL3); assay: label-free thermal shift (Tycho NT.[…], intrinsic fluorescence); type: binding; settings: with 50 mM CP (no shift by NVA alone); 20 mM Tris-HCl pH 8.0; 15 min incubation at 295 K
T1 construct: full-length arcB product, N-terminal His6 (pET-28a NdeI) kept; expressed in E. coli BL21(DE3); homotrimer in solution
T1 sequence (Z9QBN3KKL3 1-336): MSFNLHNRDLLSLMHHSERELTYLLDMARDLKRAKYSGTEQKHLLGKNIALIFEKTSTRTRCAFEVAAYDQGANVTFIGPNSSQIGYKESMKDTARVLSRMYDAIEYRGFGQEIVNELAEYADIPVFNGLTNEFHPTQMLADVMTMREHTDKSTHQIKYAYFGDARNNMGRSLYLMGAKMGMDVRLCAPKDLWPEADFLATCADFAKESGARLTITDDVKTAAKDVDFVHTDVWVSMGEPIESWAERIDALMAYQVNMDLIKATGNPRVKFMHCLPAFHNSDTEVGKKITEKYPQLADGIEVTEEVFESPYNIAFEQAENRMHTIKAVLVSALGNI

Ps_aOTC [2] = target: T2, Ps_aOTC (Psychrobacter sp. PAMC 21119, UniProt A0ACD6BAY5); assay: as above; type: binding; settings: with 5 mM CP (no shift by NVA alone); 20 mM Tris-HCl pH 8.0; 15 min incubation at 295 K
T2 construct: full-length argF product, N-terminal His6 (pET-28a) kept; expressed in E. coli BL21(DE3); homotrimer in solution
T2 sequence (A0ACD6BAY5 entry or part of it): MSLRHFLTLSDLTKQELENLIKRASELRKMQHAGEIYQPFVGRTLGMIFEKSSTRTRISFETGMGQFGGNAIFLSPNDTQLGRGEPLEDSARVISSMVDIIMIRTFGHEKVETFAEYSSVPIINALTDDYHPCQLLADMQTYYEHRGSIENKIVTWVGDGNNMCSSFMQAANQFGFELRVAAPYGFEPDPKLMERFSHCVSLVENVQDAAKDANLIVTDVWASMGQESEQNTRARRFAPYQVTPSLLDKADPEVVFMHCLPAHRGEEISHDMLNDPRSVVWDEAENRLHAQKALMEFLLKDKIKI

[3] = target: catabolic ornithine carbamoyltransferase from Psychrobacter sp. PAMC 21119 (Psychrobacter sp. PAMC 21119); assay: crystal structure; X-ray, molecular replacement; Ps_cOTC at 2.6 Å (0.1 M Tris-HCl pH 8.1, 1.3 M lithium sulfate), Ps_aOTC at 2.2 Å (0.1 M sodium acetate:HCl pH 4.6, 1 M ammonium citrate dibasic)
[4] = target: catabolic ornithine carbamoyltransferase from Psychrobacter sp. PAMC 21119 (Psychrobacter sp. PAMC 21119); assay: AUC; sedimentation velocity, 20 mM Tris-HCl pH 8.0, 200 mM NaCl, 20°C, 42,000 RPM, SEDFIT
[5] = target: catabolic ornithine carbamoyltransferase from Psychrobacter sp. PAMC 21119 (Psychrobacter sp. PAMC 21119); assay: SEC; Superdex 200 10/300 GL, 20 mM Tris-HCl pH 8.0, NaCl 300, 500 and 1,000 mM, protein 1 mg/mL, column calibrated with standards
[6] = target: anabolic ornithine carbamoyltransferase from Psychrobacter sp. PAMC 21119 (Psychrobacter sp. PAMC 21119); assay: crystal structure; X-ray, molecular replacement; Ps_cOTC at 2.6 Å (0.1 M Tris-HCl pH 8.1, 1.3 M lithium sulfate), Ps_aOTC at 2.2 Å (0.1 M sodium acetate:HCl pH 4.6, 1 M ammonium citrate dibasic)
[7] = target: anabolic ornithine carbamoyltransferase from Psychrobacter sp. PAMC 21119 (Psychrobacter sp. PAMC 21119); assay: AUC; sedimentation velocity, 20 mM Tris-HCl pH 8.0, 200 mM NaCl, 20°C, 42,000 RPM, SEDFIT
[8] = target: anabolic ornithine carbamoyltransferase from Psychrobacter sp. PAMC 21119 (Psychrobacter sp. PAMC 21119); assay: SEC; Superdex 200 10/300 GL, 20 mM Tris-HCl pH 8.0, NaCl 300, 500 and 1,000 mM, protein 1 mg/mL, column calibrated with standards
Ps_aOTC [9] = target: T2, Ps_aOTC; assay: label-free thermal shift (Tycho NT.[…], intrinsic fluorescence); type: binding; settings: apo Tm 53.7 ± 0.4 °C; saturating at 20 mM CP; 20 mM Tris-HCl pH 8.0; 15 min incubation at 295 K
Ps_cOTC [10] = target: T1, Ps_cOTC; assay: as above; type: binding; settings: apo Tm 71.9 ± 0.0 °C; up to 50 mM CP; 20 mM Tris-HCl pH 8.0; 15 min incubation at 295 K

Compound: CCC[C@H](N)C(=O)O [NVA, l-norvaline]
thermal shift (Ps_cOTC [1]): following CP binding, NVA can bind to Ps_cOTC and Ps_aOTC
thermal shift (Ps_aOTC [2]): following CP binding, NVA can bind to Ps_cOTC and Ps_aOTC

stoichiometry N [3]: 3
stoichiometry N [4]: 3
stoichiometry N [5]: 3
Compound: catabolic ornithine carbamoyltransferase from Psychrobacter sp. PAMC 21119 (enzyme)

stoichiometry N [6]: 3
stoichiometry N [7]: 3
stoichiometry N [8]: 3
Compound: anabolic ornithine carbamoyltransferase from Psychrobacter sp. PAMC 21119 (enzyme)

ΔT (Ps_aOTC [9]): 6.5 °C
ΔT (Ps_cOTC [10]): 1.3 °C
Compound: NC(=O)OP(=O)(O)O [CP, carbamoyl phosphate]
